PMC3515690 (Nature structural & molecular biology, 2012)

Columns and labels:
Assay in all cases: cross-linking
[1] = target: T1, Atg7 with a Gly-Gly-Ser-Gly insertion after Leu291 (S. cerevisiae, UniProt P38862 1-630, Gly-Gly-Ser-Gly insertion after Atg7’s Leu291)
T1 sequence (looked up): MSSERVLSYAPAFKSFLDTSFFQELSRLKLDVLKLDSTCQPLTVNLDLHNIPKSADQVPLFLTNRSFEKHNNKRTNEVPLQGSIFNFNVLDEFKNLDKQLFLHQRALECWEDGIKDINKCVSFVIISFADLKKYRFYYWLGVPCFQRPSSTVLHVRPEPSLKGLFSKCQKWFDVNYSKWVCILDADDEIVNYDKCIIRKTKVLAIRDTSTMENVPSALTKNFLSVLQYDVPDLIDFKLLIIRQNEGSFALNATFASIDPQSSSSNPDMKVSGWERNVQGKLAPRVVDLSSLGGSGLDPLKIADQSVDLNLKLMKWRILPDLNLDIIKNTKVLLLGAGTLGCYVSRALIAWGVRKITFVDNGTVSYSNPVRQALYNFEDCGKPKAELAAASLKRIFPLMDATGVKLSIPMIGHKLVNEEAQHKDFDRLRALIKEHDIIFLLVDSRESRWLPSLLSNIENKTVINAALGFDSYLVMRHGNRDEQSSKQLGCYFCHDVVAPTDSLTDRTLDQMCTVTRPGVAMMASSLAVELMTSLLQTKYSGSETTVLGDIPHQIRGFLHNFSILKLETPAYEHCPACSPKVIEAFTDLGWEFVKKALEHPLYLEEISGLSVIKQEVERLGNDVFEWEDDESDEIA

Atg7 D47A N50A K53A = target: T2, Atg7 D47A N50A K53A (S. cerevisiae, UniProt P38862 1-630, D47A | N50A | K53A)
T2 sequence (looked up): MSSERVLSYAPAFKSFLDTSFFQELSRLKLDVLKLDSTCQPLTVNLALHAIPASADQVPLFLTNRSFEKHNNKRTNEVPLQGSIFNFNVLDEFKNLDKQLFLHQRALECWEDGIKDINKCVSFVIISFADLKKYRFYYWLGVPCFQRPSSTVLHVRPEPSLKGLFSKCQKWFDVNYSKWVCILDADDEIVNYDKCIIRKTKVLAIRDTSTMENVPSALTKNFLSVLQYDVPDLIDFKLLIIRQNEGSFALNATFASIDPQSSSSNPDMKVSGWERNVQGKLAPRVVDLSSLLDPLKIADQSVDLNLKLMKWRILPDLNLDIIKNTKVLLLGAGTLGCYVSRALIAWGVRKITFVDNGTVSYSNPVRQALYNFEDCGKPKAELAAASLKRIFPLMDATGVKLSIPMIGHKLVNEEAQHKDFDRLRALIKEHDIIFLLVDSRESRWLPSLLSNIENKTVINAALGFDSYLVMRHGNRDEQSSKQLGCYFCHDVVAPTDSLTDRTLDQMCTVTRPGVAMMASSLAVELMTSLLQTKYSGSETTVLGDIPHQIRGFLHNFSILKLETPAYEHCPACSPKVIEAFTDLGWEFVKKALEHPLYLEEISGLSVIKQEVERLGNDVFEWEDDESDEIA

[2] = target: T3, Atg7 with residues 290–294 deleted (S. cerevisiae, UniProt P38862 1-630, deletion of residues 290–294)
T3 sequence (looked up): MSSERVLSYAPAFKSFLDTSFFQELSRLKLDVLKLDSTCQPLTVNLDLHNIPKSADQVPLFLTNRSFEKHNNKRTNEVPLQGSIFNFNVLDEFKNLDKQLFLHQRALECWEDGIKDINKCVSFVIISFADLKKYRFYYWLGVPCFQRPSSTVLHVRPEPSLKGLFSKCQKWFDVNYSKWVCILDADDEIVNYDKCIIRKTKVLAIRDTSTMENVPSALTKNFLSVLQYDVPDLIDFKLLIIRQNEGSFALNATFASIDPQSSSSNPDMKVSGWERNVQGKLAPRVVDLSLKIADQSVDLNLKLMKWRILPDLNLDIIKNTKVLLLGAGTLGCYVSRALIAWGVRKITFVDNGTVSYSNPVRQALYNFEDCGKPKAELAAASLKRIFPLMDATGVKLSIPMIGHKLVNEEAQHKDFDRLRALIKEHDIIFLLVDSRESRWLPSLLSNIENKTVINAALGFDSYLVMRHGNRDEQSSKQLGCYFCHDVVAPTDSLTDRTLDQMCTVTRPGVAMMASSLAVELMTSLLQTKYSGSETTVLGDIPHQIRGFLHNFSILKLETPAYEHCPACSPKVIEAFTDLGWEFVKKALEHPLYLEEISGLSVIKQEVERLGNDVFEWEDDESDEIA

binding result [1]: binds
binding result (Atg7 D47A N50A K53A): binds
binding result [2]: binds
B1: Atg3(C41A C76A C83A) (enzyme, S. cerevisiae)
chain: MIRSTLSSWREYLTPITHKSTFLTTGQITPEEFVQAGDYLAHMFPTWKWNEESSDISYRDFLPKNKQFLIIRKVPADKRAEQAVEVEGPDVIMKGFAEDGDEDDVLEYIGSETEHVQSTPAGGTKDSSIDDIDELIQDMEIKEEDENDDTEEFNAKGGLAKDMAQERYYDLYIAYSTSYRVPKMYIVGFNSNGSPLSPEQMFEDISADYRTKTATIEKLPFYKNSVLSVSIHPCKHANVMKILLDKVRVVRQRRRKELQEEQELDGVGDWEDLQDDIDDSLRVDQYLIVFLKFITSVTPSIQHDYTMEGW
modifications: Cys234 reacted with bismaleimidoethane (BMOE)
